Measurements published in the supplement of paper PMC10724198.
± gives the standard deviation of the averaged measurements.
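Note: PSI is a weighted mean of sequencing reads over stability bins, variants kept only with over 10 reads, mCherry proximal and sfGFP distal, peptide attached via GGGS linker.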

Each sequence was assayed on Saccharomyces cerevisiae (assay: protein stability index of tFT-peptide fusion (C-terminal peptide) (PSI (0-1 scale)); higher = more stable (slower turnover)). Details: genetic background: wild type; temperature: 30 C.
PRLPGPAAIARR gave a protein stability index of 0.6714 ± 0.004.
With PRLQLHSDPNCS the protein stability index was 0.733 ± 0.087.
PRLSPPSSPGPP was tested, and the protein stability index was 0.631 ± 0.03.
PRLVHGFPRFHP gave a protein stability index of 0.669 ± 0.033.
With PRPFPLSCSPPV the protein stability index was 0.751 ± 0.083.
Work on PRPHRLPPRPFH yielded a protein stability index of 0.6917 ± 0.0064.
Work on PRPPAPPDPAPP yielded a protein stability index of 0.746 ± 0.072.
PRPPLRPPPISP gave a protein stability index of 0.68 ± 0.066.
PRPPPLPPQTSS gave a protein stability index of 0.73 ± 0.1.
Work on PRPPPSPPPILP yielded a protein stability index of 0.676 ± 0.0072.
Work on PRPPPSPTPPLT yielded a protein stability index of 0.69 ± 0.095.
With PRPPRPPRPPLP the protein stability index was 0.66 ± 0.016.
With PRPPTPPTTILN the protein stability index was 0.652 ± 0.032.
PRPPYHAPSTFP was tested, and the protein stability index was 0.575 ± 0.074.
PRPRQPPPPPPP was tested, and the protein stability index was 0.689 ± 0.0076.
With PRPRSPSPPLPP the protein stability index was 0.705 ± 0.01.
With PRPRTPPPLLSF the protein stability index was 0.687 ± 0.057.
PRPSRILPLPAP gave a protein stability index of 0.65 ± 0.0072.
In the case of PRRLFFFFFLSG, the protein stability index is reported as 0.656 ± 0.017.
With PRRPLPTISCPS the protein stability index was 0.618 ± 0.005.
In the case of PRRSPPCSTPPP, the protein stability index is reported as 0.726 ± 0.077.
PRRVGRLGAPMG gave a protein stability index of 0.719 ± 0.11.
PRSAAQSQMRRK showed a protein stability index of 0.711 ± 0.056.
PRSCPPFLPSLP gave a protein stability index of 0.727 ± 0.0099.
With PRSRPTCYSRPG the protein stability index was 0.702 ± 0.04.
Work on PRSSSRAGRTGT yielded a protein stability index of 0.712 ± 0.031.
PRSSTSFLPSFL gave a protein stability index of 0.678 ± 0.064.
PRSVPLCALLSL gave a protein stability index of 0.654 ± 0.024.
Work on PRVPLPPPHPLH yielded a protein stability index of 0.728 ± 0.073.
PRVTPRFSKHAL was tested, and the protein stability index was 0.724 ± 0.016.
For PSALPLFWSELF, the protein stability index was 0.661 ± 0.022.
For PSALSSSAPSSP, the protein stability index was 0.667 ± 0.043.
Work on PSCFNAPRHPPT yielded a protein stability index of 0.749 ± 0.076.
With PSCRPPLLHPDS the protein stability index was 0.721 ± 0.0094.
PSFLTGRPISPV showed a protein stability index of 0.677 ± 0.018.
With PSGRPPGHDNLV the protein stability index was 0.666 ± 0.045.
In the case of PSHAAPVPAPQP, the protein stability index is reported as 0.628 ± 0.079.
In the case of PSHTPNHTGYPD, the protein stability index is reported as 0.681 ± 0.02.
Sequence PSILPPPSSCPP has a protein stability index of 0.767 ± 0.041.
Sequence PSIMLSSLPPPP has a protein stability index of 0.696 ± 0.065.
With PSKGKYKKMGPR the protein stability index was 0.661 ± 0.076.
PSLLPLLPLPPP was tested, and the protein stability index was 0.685 ± 0.038.
With PSLLPSRPPRSI the protein stability index was 0.648 ± 0.034.
In the case of PSLPCPVLVFSL, the protein stability index is reported as 0.462 ± 0.054.
With PSLPPLPPAPLL the protein stability index was 0.726 ± 0.039.
Sequence PSLSSPQLLLTL has a protein stability index of 0.685 ± 0.01.
In the case of PSNDNTMIPILE, the protein stability index is reported as 0.656 ± 0.04.
Sequence PSPALLILPPYS has a protein stability index of 0.672 ± 0.016.
Work on PSPFDTPPSSGQ yielded a protein stability index of 0.722 ± 0.026.
PSPFPLPLSFAR gave a protein stability index of 0.538 ± 0.047.
PSPHTPPHTFLL gave a protein stability index of 0.755 ± 0.0022.
In the case of PSPLAPPLPPPS, the protein stability index is reported as 0.701 ± 0.015.
PSPLLSPPPPRP gave a protein stability index of 0.706 ± 0.024.
Work on PSPLPSSGHPPP yielded a protein stability index of 0.6206 ± 0.0046.
In the case of PSPLSLIPSSRP, the protein stability index is reported as 0.663 ± 0.095.
Work on PSPMHPSAHFST yielded a protein stability index of 0.67613 ± 0.00039.
In the case of PSPPAPFPLVPT, the protein stability index is reported as 0.607 ± 0.032.
PSPPAPLSLLLP showed a protein stability index of 0.645 ± 0.074.
With PSPPAQSASLFF the protein stability index was 0.663 ± 0.02.
PSPPLPPPPSPY was tested, and the protein stability index was 0.72 ± 0.1.
PSPPPAVLPPPP showed a protein stability index of 0.693 ± 0.039.
PSPPPLLAPSPL showed a protein stability index of 0.683 ± 0.096.
PSPPPLLTRPLP was tested, and the protein stability index was 0.713 ± 0.1.
For PSPPPPHPSALT, the protein stability index was 0.648 ± 0.012.
PSPPPPPPHPAP gave a protein stability index of 0.694 ± 0.035.
PSPPPPPRTFPN showed a protein stability index of 0.6756 ± 0.0064.
With PSPPPSPPPRHF the protein stability index was 0.6924 ± 0.0046.
In the case of PSPPPTPPPPTP, the protein stability index is reported as 0.793 ± 0.096.
Sequence PSPPTPLPSRLF has a protein stability index of 0.7829 ± 0.0037.
PSPRPPPPPPSA gave a protein stability index of 0.705 ± 0.009.
In the case of PSPSGRGLAIAP, the protein stability index is reported as 0.688 ± 0.013.
Sequence PSPSPPPPLSPP has a protein stability index of 0.698 ± 0.045.
PSPSTAPPRDQG showed a protein stability index of 0.724 ± 0.016.
PSPSTSLPPSPP gave a protein stability index of 0.684 ± 0.042.
With PSPSYAPARHQA the protein stability index was 0.651 ± 0.063.
PSPTIPSPPPPP was tested, and the protein stability index was 0.615 ± 0.011.
Work on PSPTLGPVSFPH yielded a protein stability index of 0.703 ± 0.014.
With PSPYFHLFGTQS the protein stability index was 0.77 ± 0.027.
With PSQHVHTSPLYS the protein stability index was 0.695 ± 0.022.
In the case of PSQPYPSSQYIL, the protein stability index is reported as 0.73 ± 0.047.
PSQRHQRPHREP gave a protein stability index of 0.657 ± 0.052.
PSRASGPYPRLS gave a protein stability index of 0.701 ± 0.019.
For PSRDPPAGPRAR, the protein stability index was 0.684 ± 0.048.
Sequence PSRLSLLWVNPP has a protein stability index of 0.8 ± 0.081.
Sequence PSRPRPRRRRQA has a protein stability index of 0.751 ± 0.073.
Work on PSRRAPQSRPSQ yielded a protein stability index of 0.733 ± 0.098.
PSRRHGFRLILT gave a protein stability index of 0.679 ± 0.019.
In the case of PSRRPLPHPPPP, the protein stability index is reported as 0.654 ± 0.045.
In the case of PSRVPTPLPHFT, the protein stability index is reported as 0.737 ± 0.049.
With PSSCLPAHLRPP the protein stability index was 0.605 ± 0.013.
In the case of PSSCSLLPLCLG, the protein stability index is reported as 0.663 ± 0.065.
PSSHHGNQTTRK gave a protein stability index of 0.826 ± 0.14.
For PSSLPSTPPSPP, the protein stability index was 0.745 ± 0.019.
For PSSPLPLSVPPL, the protein stability index was 0.655 ± 0.11.
For PSSPPAPLAPHS, the protein stability index was 0.731 ± 0.067.
PSSPPLPLPALP was tested, and the protein stability index was 0.723 ± 0.04.
PSSRFLFFCSFF was tested, and the protein stability index was 0.677 ± 0.033.
Sequence PSSSLAPPPGRL has a protein stability index of 0.572 ± 0.038.
Work on PSTDARRQRLRR yielded a protein stability index of 0.721 ± 0.049.
For PSTLLPSLRFPP, the protein stability index was 0.654 ± 0.056.
In the case of PSTPPGPPPASH, the protein stability index is reported as 0.758 ± 0.011.
With PSTPSPSCAPPS the protein stability index was 0.7087 ± 0.0017.
In the case of PSTSCQRLLTLT, the protein stability index is reported as 0.639 ± 0.018.
With PSTVSPFRPPIT the protein stability index was 0.711 ± 0.039.
Sequence PSVLPPPSPASY has a protein stability index of 0.668 ± 0.094.
Sequence PTFVQGVVLGRG has a protein stability index of 0.702 ± 0.086.
Sequence PTLPACFCPPAP has a protein stability index of 0.639 ± 0.097.
In the case of PTLSSPHPPNNY, the protein stability index is reported as 0.689 ± 0.021.
PTMGRRPGRGGA showed a protein stability index of 0.6987 ± 0.00073.
PTPPPALPPPPL showed a protein stability index of 0.6994 ± 0.0054.
For PTPPPQPTPHTP, the protein stability index was 0.705 ± 0.035.
PTPPPRPPLSPP gave a protein stability index of 0.692 ± 0.046.
For PTPPRPGPIITF, the protein stability index was 0.699 ± 0.031.
Sequence PTPTAPEPIHPS has a protein stability index of 0.61 ± 0.0025.
For PTPTNLLPPRKY, the protein stability index was 0.6504 ± 0.0044.
With PTRPAMILPNRY the protein stability index was 0.698 ± 0.049.
For PTRPPRPRAGPR, the protein stability index was 0.742 ± 0.0077.
PTSFAPSPPLPR gave a protein stability index of 0.741 ± 0.025.
PTTLTTPTPPHR gave a protein stability index of 0.7161 ± 0.0022.
PTYTPAFPPVSS was tested, and the protein stability index was 0.699 ± 0.018.
Work on PVDGGAGPEVKG yielded a protein stability index of 0.641 ± 0.1.
Work on PVETVRCCLACP yielded a protein stability index of 0.64643 ± 0.00047.
In the case of PVFPPTPLSPRP, the protein stability index is reported as 0.571 ± 0.077.
PVGDWPRGKGAD was tested, and the protein stability index was 0.684 ± 0.13.
With PVLYPPPPFPPY the protein stability index was 0.747 ± 0.0095.
Work on PVPIPCPIPPPT yielded a protein stability index of 0.703 ± 0.0062.
In the case of PVPLLPLSFSLL, the protein stability index is reported as 0.736 ± 0.064.
With PVPNPPPAPRSS the protein stability index was 0.698 ± 0.062.
PVPPPPCPPLPP gave a protein stability index of 0.683 ± 0.024.
Work on PVPRNRQRWREP yielded a protein stability index of 0.663 ± 0.017.
For PVPRVPLYFPLV, the protein stability index was 0.675 ± 0.017.
For PVRLGAGGGCRP, the protein stability index was 0.693 ± 0.02.
In the case of PVRSPPPLPSPP, the protein stability index is reported as 0.653 ± 0.037.
PVSSFQHSLPWL showed a protein stability index of 0.708 ± 0.03.
PVSSLHFPLPGF gave a protein stability index of 0.677 ± 0.027.
Sequence PVSSPLVFLLSI has a protein stability index of 0.625 ± 0.045.
For PVSTINLNIQST, the protein stability index was 0.836 ± 0.087.
Work on PVTMWAGGKYYV yielded a protein stability index of 0.718 ± 0.088.
With PVWLLASSLADL the protein stability index was 0.722 ± 0.039.
PYSLRSTASSFP was tested, and the protein stability index was 0.63 ± 0.12.
In the case of PYSPPAHLLSLL, the protein stability index is reported as 0.878 ± 0.061.
QASFPRPSGRAS showed a protein stability index of 0.7026 ± 0.0054.
Sequence QAVPRAAHLHPL has a protein stability index of 0.66 ± 0.11.
QCAPVFIAVCRL showed a protein stability index of 0.681 ± 0.14.
Sequence QCIQQNVSSSRA has a protein stability index of 0.646 ± 0.014.
QCLFPVAYYLTP showed a protein stability index of 0.657 ± 0.0097.
QDHIGSTEGYKH gave a protein stability index of 0.663 ± 0.074.
QDSANLSPSFPF gave a protein stability index of 0.724 ± 0.048.
With QEESRARKGTQT the protein stability index was 0.627 ± 0.034.
QEKKKVNKKENK showed a protein stability index of 0.737 ± 0.045.
With QEKSLSHTQRYR the protein stability index was 0.762 ± 0.072.
With QFERSVFLANAL the protein stability index was 0.679 ± 0.023.
Work on QFRRKGMITECK yielded a protein stability index of 0.7161 ± 0.0029.
QFSPPLSLAPLP showed a protein stability index of 0.783 ± 0.05.
With QFSRSFHSLPPT the protein stability index was 0.683 ± 0.022.
In the case of QFWVICTRGSEN, the protein stability index is reported as 0.694 ± 0.029.
Sequence QGGGGGGRSGWR has a protein stability index of 0.6854 ± 0.0061.
QGRCHSRARMTP was tested, and the protein stability index was 0.731 ± 0.046.
With QGSWLRSVNLEY the protein stability index was 0.617 ± 0.092.
In the case of QGTCSQSIEAHF, the protein stability index is reported as 0.706 ± 0.14.
